Test results reported in ChEMBL document CHEMBL1687818, “Mechanistic studies of the inactivation of TEM-1 and P99 by NXL104, a novel non-beta-lactam beta-lactamase inhibitor” (Antimicrob Agents Chemother, 2010).

Substrate: C[C@]1(Cn2ccnn2)[C@H](C(=O)O)N2C(=O)C[C@H]2S1(=O)=O
Conditions: Enterobacter cloacae
Description: Activity of Enterobacter cloacae beta-lactamase P99 by spectrophotometry

B1: Beta-lactamase (Enterobacter cloacae), P05364 (protein)
chain: MMRKSLCCALLLGISCSALATPVSEKQLAEVVANTITPLMKAQSVPGMAVAVIYQGKPHYYTFGKADIAANKPVTPQTLFELGSISKTFTGVLGGDAIARGEISLDDAVTRYWPQLTGKQWQGIRMLDLATYTAGGLPLQVPDEVTDNASLLRFYQNWQPQWKPGTTRLYANASIGLFGALAVKPSGMPYEQAMTTRVLKPLKLDHTWINVPKAEEAHYAWGYRDGKAVRVSPGMLDAQAYGVKTNVQDMANWVMANMAPENVADASLKQGIALAQSRYWRIGSMYQGLGWEMLNWPVEANTVVEGSDSKVALAPLPVAEVNPPAPPVKASWVHKTGSTGGFGSYVAFIPEKQIGIVMLANTSYPNPARVEAAYHILEALQ
  Km: 300 µM
